Several values for one entry are separate records, joined by “and”; a condition that tells them apart may be missing. Identical values can stand only once. Ends that are not written are not given here. * marks the point of attachment. Galα1‑3Galβ1‑O(CH2)3NH2 = OC[C@H]1O[C@H](O[C@H]2[C@@H](O)[C@@H](CO)O[C@@H](OCCCN*)[C@@H]2O)[C@H](O)[C@@H](O)[C@H]1O
molecular target: T1, gp120 of HIV-1 IIIB virus (HIV-1 IIIB, UniProt P04578 33-856); test: cell-based or functional assay

Binder | neutralization (inhibition of syncytia formation, U87 CD4+ CXCR4+ cells), peptide without serum | decrease in the infectivity (RT activity day 11, H9 cells, HIV IIIB) at 0.01 µg/ml glycopeptide (approximately 5 nM) with 5 or 10% human serum | neutralization (RT activity day 11, H9 cells, HIV IIIB) at 1 µg/ml glycopeptide with 5 or 10% human serum
QFHWKNSNQIKILGN [CD4 peptide alone, Seq. Id. No. 4 (non-glycosylated)] | < 40% | – | –
D(Galα1‑3Galβ1‑O(CH2)3NH2)QFHWKNSNQIKILGN (also called GP1; glycopeptide 1) [Gal-CD4-100] | < 40% | – | –
NSNQIKILGNQGSFL [CD4 peptide alone, Seq. Id. No. 5 (non-glycosylated)] | < 40% | – | –
KILGNQGSFLTKGPS [CD4 peptide alone, Seq. Id. No. 6 (non-glycosylated)] | < 40% | – | –
QGSFLTKGPSKLNDR [CD4 peptide alone, Seq. Id. No. 7 (non-glycosylated)] | < 40% | – | –
TKGPSKLNDRADSRR [non-glycosylated CD4 peptide, Seq. Id. No. 8] | < 40% | – | –
KLNDRADSRRSLWDQ [non-glycosylated CD4 peptide, Seq. Id. No. 9] | < 40% | – | –
DKILGNQGSFLTKGPS (not fully specified (residue 1), also called GP3; glycopeptide 3) [Gal-CD4-102] | < 40% | > 50% | 90%
D(Galα1‑3Galβ1‑O(CH2)3NH2)QGSFLTKGPSKLNDR (also called GP4; glycopeptide 4) [Gal-CD4-103] | < 40% | > 50% | 90%
DTKGPSKLNDRADSRR (not fully specified (residue 1), also called glycopeptide 5) [Gal-CD4-104] | < 40% | > 50% | 90%
DNSNQIKILGNQGSFL (not fully specified (residue 1), also called GP2; glycopeptide 2) [Gal-CD4-101] | < 40% | – | –
DKLNDRADSRRSLWDQ (not fully specified (residue 1), also called GP6; glycopeptide 6) [Gal-CD4-105] | < 40% | – | –

molecular target: T1, gp120 of HIV-1 IIIB virus; test: cell-based or functional assay; remark: another data set of the same source

Binder | percentage of neutralization of the virus (plaque assay, U87 CD4 cells, HIV-1 IIIB); CD4 peptide alone 0.1 ug/ml | percentage of neutralization of the virus (plaque assay, U87 CD4 cells, HIV-1 IIIB); CD4 peptide alone 1 ug/ml | percentage of neutralization of the virus (plaque assay, U87 CD4 cells, HIV-1 IIIB); CD4 peptide alone 10 ug/ml | percentage of neutralization of the virus (plaque assay, U87 CD4 cells, HIV-1 IIIB); glycosylated Sp. exchanger 0.1 ug/ml & 1:10 dilution human serum | percentage of neutralization of the virus (plaque assay, U87 CD4 cells, HIV-1 IIIB); glycosylated Sp. exchanger 0.1 ug/ml & 1:20 dilution human serum | percentage of neutralization of the virus (plaque assay, U87 CD4 cells, HIV-1 IIIB); glycosylated Sp. exchanger 0.1 ug/ml, no serum | percentage of neutralization of the virus (plaque assay, U87 CD4 cells, HIV-1 IIIB); glycosylated Sp. exchanger 1 ug/ml & 1:10 dilution human serum | percentage of neutralization of the virus (plaque assay, U87 CD4 cells, HIV-1 IIIB); glycosylated Sp. exchanger 1 ug/ml & 1:20 dilution human serum | percentage of neutralization of the virus (plaque assay, U87 CD4 cells, HIV-1 IIIB); glycosylated Sp. exchanger 1 ug/ml, no serum | percentage of neutralization of the virus (plaque assay, U87 CD4 cells, HIV-1 IIIB); glycosylated Sp. exchanger 10 ug/ml & 1:10 dilution human serum
QFHWKNSNQIKILGN [CD4 peptide alone, Seq. Id. No. 4 (non-glycosylated)] | < 0.3 fraction (0.3 equals 30%) | < 0.3 fraction (0.3 equals 30%) | < 0.3 fraction (0.3 equals 30%) | – | – | – | – | – | – | –
D(Galα1‑3Galβ1‑O(CH2)3NH2)QFHWKNSNQIKILGN (also called GP1; glycopeptide 1) [Gal-CD4-100] | – | – | – | 0.48 fraction (0.3 equals 30%) | 0.47 fraction (0.3 equals 30%) | < 0.3 fraction (0.3 equals 30%) | 0.48 fraction (0.3 equals 30%) | 0.47 fraction (0.3 equals 30%) | < 0.3 fraction (0.3 equals 30%) | 0.55 fraction (0.3 equals 30%)
NSNQIKILGNQGSFL [CD4 peptide alone, Seq. Id. No. 5 (non-glycosylated)] | < 0.3 fraction (0.3 equals 30%) | < 0.3 fraction (0.3 equals 30%) | < 0.3 fraction (0.3 equals 30%) | – | – | – | – | – | – | –
KILGNQGSFLTKGPS [CD4 peptide alone, Seq. Id. No. 6 (non-glycosylated)] | < 0.3 fraction (0.3 equals 30%) | < 0.3 fraction (0.3 equals 30%) | < 0.3 fraction (0.3 equals 30%) | – | – | – | – | – | – | –
QGSFLTKGPSKLNDR [CD4 peptide alone, Seq. Id. No. 7 (non-glycosylated)] | < 0.3 fraction (0.3 equals 30%) | < 0.3 fraction (0.3 equals 30%) | < 0.3 fraction (0.3 equals 30%) | – | – | – | – | – | – | –
DKILGNQGSFLTKGPS (not fully specified (residue 1), also called GP3; glycopeptide 3) [Gal-CD4-102] | – | – | – | 0.5 fraction (0.3 equals 30%) | < 0.3 fraction (0.3 equals 30%) | < 0.3 fraction (0.3 equals 30%) | 0.42 fraction (0.3 equals 30%) | < 0.3 fraction (0.3 equals 30%) | – | 0.6 fraction (0.3 equals 30%)
D(Galα1‑3Galβ1‑O(CH2)3NH2)QGSFLTKGPSKLNDR (also called GP4; glycopeptide 4) [Gal-CD4-103] | – | – | – | 0.439 fraction (0.3 equals 30%) | < 0.3 fraction (0.3 equals 30%) | < 0.3 fraction (0.3 equals 30%) | 0.461 fraction (0.3 equals 30%) | < 0.3 fraction (0.3 equals 30%) | < 0.3 fraction (0.3 equals 30%) | 0.454 fraction (0.3 equals 30%)
DTKGPSKLNDRADSRR (not fully specified (residue 1), also called glycopeptide 5) [Gal-CD4-104] | – | – | – | 0.778 fraction (0.3 equals 30%) | 0.701 fraction (0.3 equals 30%) | – | 0.821 fraction (0.3 equals 30%) | 0.667 fraction (0.3 equals 30%) | 0.548 fraction (0.3 equals 30%) | 0.83 fraction (0.3 equals 30%)
DNSNQIKILGNQGSFL (not fully specified (residue 1), also called GP2; glycopeptide 2) [Gal-CD4-101] | – | – | – | < 0.3 fraction (0.3 equals 30%) | < 0.3 fraction (0.3 equals 30%) | < 0.3 fraction (0.3 equals 30%) | 0.39 fraction (0.3 equals 30%) | 0.32 fraction (0.3 equals 30%) | < 0.3 fraction (0.3 equals 30%) | 0.49 fraction (0.3 equals 30%)
DKLNDRADSRRSLWDQ (not fully specified (residue 1), also called GP6; glycopeptide 6) [Gal-CD4-105] | – | – | – | 0.76 fraction (0.3 equals 30%) | 0.71 fraction (0.3 equals 30%) | < 0.3 fraction (0.3 equals 30%) | 0.75 fraction (0.3 equals 30%) | 0.75 fraction (0.3 equals 30%) | < 0.3 fraction (0.3 equals 30%) | 0.78 fraction (0.3 equals 30%)

same assay, conditions: not given

Binder | percentage of neutralization of the virus (plaque assay, U87 CD4 cells, HIV-1 IIIB); glycosylated Sp. exchanger 10 ug/ml & 1:20 dilution human serum | percentage of neutralization of the virus (plaque assay, U87 CD4 cells, HIV-1 IIIB); glycosylated Sp. exchanger 10 ug/ml, no serum
D(Galα1‑3Galβ1‑O(CH2)3NH2)QFHWKNSNQIKILGN (also called GP1; glycopeptide 1) [Gal-CD4-100] | 0.48 fraction (0.3 equals 30%) | < 0.3 fraction (0.3 equals 30%)
DKILGNQGSFLTKGPS (not fully specified (residue 1), also called GP3; glycopeptide 3) [Gal-CD4-102] | < 0.3 fraction (0.3 equals 30%) | –
D(Galα1‑3Galβ1‑O(CH2)3NH2)QGSFLTKGPSKLNDR (also called GP4; glycopeptide 4) [Gal-CD4-103] | < 0.3 fraction (0.3 equals 30%) | < 0.3 fraction (0.3 equals 30%)
DTKGPSKLNDRADSRR (not fully specified (residue 1), also called glycopeptide 5) [Gal-CD4-104] | 0.642 fraction (0.3 equals 30%) | 0.552 fraction (0.3 equals 30%)
DNSNQIKILGNQGSFL (not fully specified (residue 1), also called GP2; glycopeptide 2) [Gal-CD4-101] | 0.429 fraction (0.3 equals 30%) | < 0.3 fraction (0.3 equals 30%)
DKLNDRADSRRSLWDQ (not fully specified (residue 1), also called GP6; glycopeptide 6) [Gal-CD4-105] | 0.74 fraction (0.3 equals 30%) | < 0.3 fraction (0.3 equals 30%)

molecular target: T2, LAI gp120 molecule (PerkinElmer, Denmark) (HIV-1 LAI, UniProt P03377 33-516); test: ELISA on coated LAI gp120, detection with 1:10 or 1:20 human serum
T2 construct: domain: gp120; also called gp120 from LAI virus

Binder | lowest glycopeptide concentration at which binding was detected
D(Galα1‑3Galβ1‑O(CH2)3NH2)QFHWKNSNQIKILGN (also called GP1; glycopeptide 1) [Gal-CD4-100] | ~5 nM and 10 ng/ml
DKILGNQGSFLTKGPS (not fully specified (residue 1), also called GP3; glycopeptide 3) [Gal-CD4-102] | ~5 nM and 10 ng/ml
D(Galα1‑3Galβ1‑O(CH2)3NH2)QGSFLTKGPSKLNDR (also called GP4; glycopeptide 4) [Gal-CD4-103] | 10 ng/ml and ~5 nM
DTKGPSKLNDRADSRR (not fully specified (residue 1), also called glycopeptide 5) [Gal-CD4-104] | 10 ng/ml and ~5 nM
DNSNQIKILGNQGSFL (not fully specified (residue 1), also called GP2; glycopeptide 2) [Gal-CD4-101] | ~5 nM and 10 ng/ml
DKLNDRADSRRSLWDQ (not fully specified (residue 1), also called GP6; glycopeptide 6) [Gal-CD4-105] | 10 ng/ml and ~5 nM

Source: US20090092631A1 (TRIPEP, published 2009)
